This note sets out measurements from US20250163183A1 (COAGULANT THERAPEUTICS, published 2025).

For assay [1], the target named is T1, human APC-PPACK (active site-blocked APC) (human, UniProt P04070 43-461, active site bound by the tripeptide inhibitor Phe-Pro-Arg-chloromethylketone (PPACK)).
T1 construct: Bought (Haematologic Technologies)
Description: ELISA. On the technique in general: An ELISA detects its analyte on a solid surface through an enzyme-linked reagent.

Assay [2] deals with T2, human protein C (PC) zymogen (human, UniProt P04070 43-197; P04070 200-461).
T2 construct: Bought
T2 sequence (P04070 43-197, chain 1 of 2): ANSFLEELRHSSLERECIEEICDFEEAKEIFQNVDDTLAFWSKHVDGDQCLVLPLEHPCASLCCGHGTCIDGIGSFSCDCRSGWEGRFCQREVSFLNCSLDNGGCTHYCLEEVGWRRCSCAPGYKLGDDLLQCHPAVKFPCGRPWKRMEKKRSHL
T2 sequence (P04070 200-461, chain 2 of 2): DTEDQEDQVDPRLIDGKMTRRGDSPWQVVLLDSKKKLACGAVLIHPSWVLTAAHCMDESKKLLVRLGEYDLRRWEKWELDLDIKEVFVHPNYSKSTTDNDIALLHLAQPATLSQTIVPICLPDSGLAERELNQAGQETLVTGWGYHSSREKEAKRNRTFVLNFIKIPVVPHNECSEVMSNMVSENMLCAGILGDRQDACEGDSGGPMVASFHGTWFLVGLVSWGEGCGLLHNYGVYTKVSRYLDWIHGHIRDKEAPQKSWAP
Description: ELISA screen, PC-coated wells, OD450, n=2 [Continued].

Assay [3] deals with T2, human protein C (PC) zymogen. As to the kind of experiment: ELISA screen, PC-coated wells, OD450, n=2.

T1 sequence (P04070 other isoform, or with tags, fused parts or gaps): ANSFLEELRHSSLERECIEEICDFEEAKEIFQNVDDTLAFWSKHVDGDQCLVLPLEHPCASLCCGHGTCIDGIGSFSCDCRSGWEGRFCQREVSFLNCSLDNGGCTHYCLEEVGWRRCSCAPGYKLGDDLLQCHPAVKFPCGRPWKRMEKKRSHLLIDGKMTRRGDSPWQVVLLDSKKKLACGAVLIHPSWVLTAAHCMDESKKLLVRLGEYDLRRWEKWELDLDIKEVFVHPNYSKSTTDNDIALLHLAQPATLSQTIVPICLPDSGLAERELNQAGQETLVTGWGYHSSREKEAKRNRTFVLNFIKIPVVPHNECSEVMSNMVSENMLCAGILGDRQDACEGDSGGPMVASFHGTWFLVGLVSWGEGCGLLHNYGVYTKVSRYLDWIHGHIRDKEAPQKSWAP

B1: SR16983-R2-P3-B01 (VHH)
VHH: QLQLVESGGGLVQAGGSLRLSCAASGRTFGTYVIGWFRQAPGKEREFVAAFSRSTGNTVYPDSVKGRFTISRDDAKNTVTLQMNSLKPEDTAVYYCAARASINYNYANWPYWGQGTQVTVSS
For the molecule B1, the binding result was “binds” in assay [1] and “no binding” in assay [2].

B2: SR16983-R2-P3-F12 (VHH)
VHH: QVQLVESGGGLVQAGGSLRLSCAASGRTFGTYVMGWFRQAPGKEREFVAAFSRSTGSTTYADSVKGRFTISRDDAKNTLYLQMNSLKPEDTAVYYCATRASINYNYANWPYWGQGTQVTVSS
Take B2: the binding result in assay [1] is “binds”; in assay [2], “no binding”.

B3: SR16983-R3-P5-H06 (VHH)
VHH: QLQLVESGGGLVQAGGSLRLSCAASGRTFGTYVIGWFRQAPGKEREFVAAFSRSTGNTVYPDSVKGRFTISRDDAKNTVYLQMNSLKPEDTAVYYCAARASINYNYANWPYWGQGTQVTVSS
In the case of B3, the figures for the binding result in assay [1] and in assay [2] were “binds” and “no binding”, respectively.

B4: SR16983-R3P2D06 (VHH)
VHH: QLQLVESGGGLVQPGGSLRLSCAASGRTVGSYVMGWFRQAPGKERELLAASSRSTGNTVYADSVKGRFTISRDDAKNTLYLQMNSLKPEDTAVYYCAARASINYNYANWPYWGQGTQVTVSS
As for B4, the binding result in assay [1] is recorded as “binds”; in assay [2], “no binding”.

B5: SR16983-R2-P3-E04 (VHH)
VHH: QLQLVESGGGLVQAGGSLRLSCAASGRTVGSYVMGWFRQAPGKEREFLAASSRSTGNTVYADSVKGRFSISRDDAKNTLYLQMNSLKPEDTAVYYCATRASINYNYANWPYWGQGTQVTVSS
With B5, the binding result in assay [1] was “binds”; in assay [2], “no binding”.

B6: SR16983-R3-P3-H10 (VHH)
VHH: QVQLVESGGGLVQAGDSLRLSCAASTRTVGTYVMGWFRQAPGKERELVAASSRSTGNTVYPDSVKGRFTVSRDDAKNALYLQMNSLKPEDTAIYYCAARASINYNYANWPYWGQGTQVTVSS
For B6, the values for the binding result in assay [1] and in assay [2] were “binds” and “no binding”, respectively.

B7: SR16983-R2-P4-F03 (VHH)
VHH: QVQLVESGGGLVQAGGSLRLSCAASGRTFGSYVMGWFRQAPGKEREFLAAFSRSTGSTVYADSVKGRFTISKDDAKNTLYLQMNSLKPEDTAVYYCATRASINYNYANWPYWGQGTQVTVSS
For the molecule B7, the figures for the binding result in assay [1] and in assay [2] were “binds” and “no binding”, respectively.

B8: SR16983-R3-P3-C10 (VHH)
VHH: QLQLVESGGGLVQAGGSLRLSCAASGRTVGSYAMGWFRQAPGKEREFLAAFSRSTGPTVYADSVKGRFTISRDDAKNTLYLQMNSLKPEDTAVYYCAARASINYNYANWPYWGQGTQVTVSS
With B8, the binding result in assay [1] is “binds”; in assay [2] it was “no binding”.

B9: SR16983-R2-P4-E08 (VHH)
VHH: QLQLVESGGGLVQAGGSLTLSCAASGFTLDDYAIGWFRQAPGKEREGVSCIATSDGSTYYADSVKGRFTISSDNAKNTVYLQMNSLKPEDTAVYYCARGGLLLPKPELFDFRGQGTQVTVSP
B9: the binding result was “binds” in assay [1] and “no binding” in assay [2].

B10: SR16983-R3P2D02 (VHH)
VHH: QLQLVESGGGLVQPGGSLRLSCAASGFTLDGYAIGWFRQAPGKEREGVSSIATSDGSTYYADSVKGRFTISGDDAKNTVYLHMNSLKPEDTAVYYCARGGSLVLRPKYYDYWGQGTQVTVSS
On to B10, for which the binding result is on record as “binds” in assay [1] and “no binding” in assay [2].

B11: SR16983-R2-P5-D01 (VHH)
VHH: QLQLVESGGGLVQAGGSLRLSCVASGTTFTIEDIGWYRLAPGKQRELVAIISGGNTNYADSVKGRFTISRDNTKNTVYLQMNSLKPEDTAVYYCNGRTKATVKWGRGTQVTVSS
In the case of B11, the results for the binding result in assay [1] and in assay [2] were “binds” and “no binding”, respectively.

B12: SR16983-R3-P2-F07 (VHH)
VHH: QLQLVESGGGLVQAGGSLRLSCAASGTTFDMNSMGWYRQAPGFKRDLVATISIGGDTNYADSVKGRFTISRDNAKNTVYMQMNSLKPEDTAVYYCNAERIWPNRRSFWGQGTQVTVSS
With B12, the binding result in assay [1] is reported as “binds”; in assay [3], “no binding”.

B13: SR16983-R2-P4-C02 (VHH)
VHH: QVQLVESGGGLVQAGGSLRLSCTTSGSTFSITAGGWYRQAPGKQRELVADIANDGSTTSADSVKGRFTISRDNAKNTVELQMSSLKLEDTAVYYCFVVGKSDSMPRARAYWGQGTQVTVSS
In the case of B13, the binding result in assay [1] is given as “binds”; in assay [2] it was “no binding”.

B14: SR16983-R3P2H09 (VHH)
VHH: EVQLVESGGGLVQAGGSLRVSCTTSGSTFSITAGGWYRQTPGKERELVADIANDGSTTYANSVKGRFTISRDNAKNTVELQMSSLKLEDTAAYRCFVVGISDSMPRPRAYWGQGTQVTVSS
For B14, the binding result was “binds” in assay [1] and “no binding” in assay [2].

B15: SR16983-R3-P5-D08 (VHH)
VHH: EVQLVESGGGLVQAGGSLRLSCTGSGSTFSVTAGGWYRQAPGKQRELVADIANDGSTTYLDFVKGRFTISRDNAKNSVDLQMNSLKPEDTAVYYCFVVGISDSTPRPRAYWGQGTQVTVSS
B15: the binding result in assay [1] is “binds”; in assay [2] it was “no binding”.

B16: SR16983-R2-P5-A12 (VHH)
VHH: QVQLVESGGGLVEAGGSLRLSCAASGRTFSSGALGWFRQAPGKEREFVATIRWSDERKQYSEFVKGRFTISRDSAKNTVYLQMNNLQPEDTAVYYCRSTVGNVLYWGQGTQVTVSS
Regarding B16, the results for the binding result in assay [1] and in assay [3] were “binds” and “no binding”, respectively.

B17: SR16983-R2-P4-E03 (VHH)
VHH: QVQLVESGGGLVQAGGSLRLSCAASGRTFSSGALGWFRQAPGKEREFVATIRWSDERKQYSEFVKGRFTISRDSAKNTVYLQMNNLQPEDTAVYYCRSTVGNVLYWGQGTQVTVSS
B17: the binding result in assay [1] is listed as “binds”; in assay [3], “no binding”.

B18: SR16983-R2-P2-D01 (VHH)
VHH: QLQLVESGGGLVQAGGSLRLSCVASGRTFSTYAMGWFRQAPGKEREFVGAIRWDGGSTNYANSVKGRFTISRDNAKNTVYLQVNSLKPEDTAVYYCAARASINYNYANWPYWGRGTQVTVSS
For B18, the binding result in assay [1] is listed as “binds”; in assay [2], “no binding”.

B19: SR16983-R2-P3-E05 (VHH)
VHH: EVQLVESGGGLVQAGGSLRLSCAASGLTASTYVMAWFRQAPGKERDFVSLIDWRGEPTYANSVKGRFTISRDNGKNTVFLQMNSLRPEDTALYYCAVRASPGYVASLYPYWGRGTQVTVSS
On to B19, for which the values for the binding result in assay [1] and in assay [2] were “binds” and “no binding”, respectively.

B20: SR16983-R4-P1-C12 (VHH)
VHH: QLQLVESGGGLVQAGGSLRLSCAASGSTFSINVFAWYRQGSGEQRELVAFIGRSGTARYGDSVKGRFSISRDNAKKTVYLQMDSLRPEDTAVYYCNLGDYWGQGTQVTVSS
Consider B20, for which the figures for the binding result in assay [1] and in assay [2] were “binds” and “no binding”, respectively.

B21: SR16983-R3-P3-E02 (VHH)
VHH: QLQLVESGGGLVQAGGSLRLSCVLSGNTFGRNVITWYRQPPGKQREFIAMITSSGSTRYADSVKGRFTMSRDTAKNTAFLQMSSLKVEDTAVYYCWTAIAGQGEYWGQGTQVTVSS
Turning to B21, the values for the binding result in assay [1] and in assay [2] were “binds” and “no binding”, respectively.

B22: SR16983-R3P2H10 (VHH)
VHH: QLQLVESGGGLVQPGGSLRLSCAASGFTFSTKWMYWVRQGPGKGLERVAAIDAGGGSTYYADSVKGRFTISRDNSENTVYLQMNSLESADTAVYYCARSEGGLFRGRGTQVTVSA
As to B22, in assay [3], the binding result is “no binding”.

B23: SR16983-R2-P2-F02 (VHH)
VHH: QLQLVESGGGLVQAGGSLRLSCAASGTTFSFVYMGWYRQAPGNQRDLVARISSDGSTNYADSVKGRFTISRDNAKNTVYLQMNSLRPEDTARYYCFYNGHLNKWGQGTQVTVSS
As to B23, the binding result in assay [1] is given as “binds”; in assay [3], “no binding”.

B24: SR16983-R2-P2-F07 (VHH)
VHH: QLQLVESGGGLVQAGGSLRLSCAASGSTFSFNYMGWYRQAPGNQRDLVARISSGGITNYADSVKGRFTISGDNAKDTVYLQMNSLKPEDTARYYCFYNGYLNKWGQGTQVTVSS
Take B24: the results for the binding result in assay [1] and in assay [3] were “binds” and “no binding”, respectively.

B25: SR16983-R2-P2-H04 (VHH)
VHH: QVQLVESGGGLVQAGGSLRLSCAASGTTFSFVYMGWFRQAPGNQRDLVARISSDGSTNYADSVKGRFTISGDNAKNTVYLQMNSLKPEDTARYFCFYNAHLNKWGQGTQVTVSS
Regarding B25, the figures for the binding result in assay [1] and in assay [3] were “binds” and “no binding”, respectively.

B26: SR16983-R3-P2-G01 (VHH)
VHH: QLQLVESGGGLVQAGGSLRLSCAASGSTFSFNYMGWYRQAPGNQRDLVARISSGGITNYADSVKGRFTISGDNAKNTVYLQMNSLKPEDTARYYCFYNGYLNKWGRGTQVTVSS
Regarding B26, the binding result in assay [1] is “binds”; in assay [3], “no binding”.

B27: SR16983-R3-P3-A08 (VHH)
VHH: EVQLVESGGGLVQAGGSLRLSCAASGRTFVGTYVMGWFRQAPGKAREFVAASSRSTGNTVYLDSVKGRFTVSRDDAKNTLYLQMNSLKPEDTAVYYCAARASINYNAANWPYWGQGTQVTVSS
As to B27, the binding result in assay [1] is recorded as “binds”; in assay [3], “no binding”.
